This is an account of results in US20240124608A1 (Johns Hopkins, published 2024).

Assay [1] concerns the target CD3 polypeptide (form not stated, target of the affinity printed for scFv UCHT1.v9) (UniProt P07766 23-126). Put plainly: not stated; column head 'Affinity' in the table of scFv sequences.
Assay [2] concerns the target TRBC1 polypeptide (form not stated, target of the affinity printed for scFv C1) (UniProt P01850 1-149, limits assumed). Described as above.
In assay [3] the target is T1, TRBC2 (T cell receptor β chain constant region 2) on HPB-ALL cells (human, UniProt A0A5B9 1-178).
T1 construct: whole, on cells; This is the constant region of the TCR β chain carried by the cell's own rearranged TCR; also called TRBC2 polypeptide
Put plainly: flow cytometry on HPB-ALL cells (express TRBC2). On the technique in general: In flow cytometry, cells or beads pass a laser one at a time.

The target in assay [4] is T2, TRBC1 (T cell receptor β chain constant region 1) on Jurkat cells and TRBC1^+ healthy human T cells (human, UniProt P01850 1-176).
T2 construct: whole, on cells; This is the constant region of the TCR β chain carried by the cell's own rearranged TCR; The rest of the TCR is not specified; also called TRBC1 polypeptide
Put plainly: flow cytometry on Jurkat cells and healthy human T cells.

T1 sequence (A0A5B9 whole entry): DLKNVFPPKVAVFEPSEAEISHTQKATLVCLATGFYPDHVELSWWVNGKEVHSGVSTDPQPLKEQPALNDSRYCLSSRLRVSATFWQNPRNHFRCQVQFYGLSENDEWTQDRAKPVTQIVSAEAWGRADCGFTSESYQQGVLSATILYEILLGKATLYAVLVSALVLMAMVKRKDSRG
TRBC1 polypeptide (form not stated, target of the affinity printed for scFv C1), sequence (P01850 1-149 limits assumed): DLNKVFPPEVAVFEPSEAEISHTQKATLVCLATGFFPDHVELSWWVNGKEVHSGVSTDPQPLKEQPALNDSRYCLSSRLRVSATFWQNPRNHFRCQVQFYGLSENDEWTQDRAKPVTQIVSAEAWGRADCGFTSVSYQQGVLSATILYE
T2 sequence (P01850 whole entry): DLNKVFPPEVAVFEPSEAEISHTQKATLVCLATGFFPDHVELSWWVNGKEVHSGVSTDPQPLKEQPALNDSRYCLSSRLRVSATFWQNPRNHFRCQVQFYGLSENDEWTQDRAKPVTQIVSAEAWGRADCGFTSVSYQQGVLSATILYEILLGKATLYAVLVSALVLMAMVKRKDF
CD3 polypeptide (form not stated, target of the affinity printed for scFv UCHT1.v9), sequence (P07766 23-126): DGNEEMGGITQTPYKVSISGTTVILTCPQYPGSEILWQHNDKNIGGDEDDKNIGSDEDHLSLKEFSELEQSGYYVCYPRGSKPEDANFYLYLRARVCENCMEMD

B1: anti-CD3 scFv UCHT1.v9 (scFv, V domains shown)
VH: EVQLVESGGGLVQPGGSLRLSCAASGYSFTGYTMNWVRQAPGKGLEWVALINPYKGVSTYNQKFKDRFTISVDKSKNTAYLQMNSLRAEDTAVYYCARSGYYGDSDWYFDVWGQGTLVTVSS
VL: DIQMTQSPSSLSASVGDRVTITCRASQDIRNYLNWYQQKPGKAPKLLIYYTSRLESGVPSRFSGSGSGTDYTLTISSLQPEDFATYYCQQGNTLPWTFGQGTKVEIK
notes: also called αCD3 scFv
For orientation: Kd means the free concentration of one partner at which half of the binding sites on the other are occupied at equilibrium, for simple one-to-one binding. In assay [1], B1 came in with a dissociation constant (Kd) of 4.7 nM.

B2: anti-TRBC1 scFv C1 (Jovi-1) (scFv, V domains shown)
VH: EVRLQQSGPDLIKPGASVKMSCKASGYTFTGYVMHWVKQRPGQGLEWIGFINPYNDDIQSNERFRGKATLTSDKSSTTAYMELSSLTSEDSAVYYCARGAGYNFDGAYRFFDFWGQGTTLTVSS
VL: DVVMTQSPLSLPVSLGDQASISCRSSQRLVHSNGNTYLHWYLQKPGQSPKLLIYRVSNRFPGVPDRFSGSGSGTDFTLKISRVEAEDLGIYFCSQSTHVPYTFGGGTKLEIKR
notes: also called αTRBC1 scFv
As to B2, in assay [2], the Kd is 0.4 nM.

B3: TRBC1-TRBC1 #3 bispecific antibody (bispecific antibody, V domains shown)
VH: EVRLQQSGPDLIKPGASVKMSCKASGYTFTGYVMHWVKQRPGQGLEWIGFINPYNDDIQSNERFRGKATLTSDKSSTTAYMELSSLTSEDSAVYYCARGAGYNFDGAYRFFDFWGQGTTLTVSS
VL: DVVMTQSPLSLPVSLGDQASISCRSSQRLVHSNGNTYLHWYLQKPGQSPKLLIYRVSNRFPGVPDRFSGSGSGTDFTLKISRVEAEDLGIYFCSQSTHVPYTFGGGTKLEIKR
notes: A single polypeptide made by linking two anti-TRBC1 scFvs, with G4S and (G4S)3 linkers and a poly-histidine tail; also called anti-C1 #3
As to B3, the binding result in assay [3] is recorded as “no binding”.

B4: TRBC1-CD3 bispecific antibody (bispecific antibody, V domains shown)
VL 1: DVVMTQSPLSLPVSLGDQASISCRSSQRLVHSNGNTYLHWYLQKPGQSPKLLIYRVSNRFPGVPDRFSGSGSGTDFTLKISRVEAEDLGIYFCSQSTHVPYTFGGGTKLEIKR
VH 1: EVRLQQSGPDLIKPGASVKMSCKASGYTFTGYVMHWVKQRPGQGLEWIGFINPYNDDIQSNERFRGKATLTSDKSSTTAYMELSSLTSEDSAVYYCARGAGYNFDGAYRFFDFWGQGTTLTVSS
VL 2: DIQMTQSPSSLSASVGDRVTITCRASQDIRNYLNWYQQKPGKAPKLLIYYTSRLESGVPSRFSGSGSGTDYTLTISSLQPEDFATYYCQQGNTLPWTFGQGTKVEIK
VH 2: EVQLVESGGGLVQPGGSLRLSCAASGYSFTGYTMNWVRQAPGKGLEWVALINPYKGVSTYNQKFKDRFTISVDKSKNTAYLQMNSLRAEDTAVYYCARSGYYGDSDWYFDVWGQGTLVTVSS
notes: It was nickel purified, so a His tag is implied; also called αC1-CD3; anti-C1-CD3
B4: the binding result in assay [4] is listed as “binds”.

B5: TRBC1-TRBC1 #4 bispecific antibody (bispecific antibody, V domains shown)
VH: EVRLQQSGPDLIKPGASVKMSCKASGYTFTGYVMHWVKQRPGQGLEWIGFINPYNDDIQSNERFRGKATLTSDKSSTTAYMELSSLTSEDSAVYYCARGAGYNFDGAYRFFDFWGQGTTLTVSS
VL: DVVMTQSPLSLPVSLGDQASISCRSSQRLVHSNGNTYLHWYLQKPGQSPKLLIYRVSNRFPGVPDRFSGSGSGTDFTLKISRVEAEDLGIYFCSQSTHVPYTFGGGTKLEIKR
notes: A single polypeptide made by linking two anti-TRBC1 scFvs, with G4S and (G4S)3 linkers and a poly-histidine tail; also called anti-C1 #4
As to B5, in assay [3], the binding result is reported as “no binding”.
